T1: DCBLD2-FLAG-MYC (full-length human Discoidin, CUB, and LCCL domain-containing protein 2) (human, UniProt Q96PD2 67-775)
T1 construct: DCBLD2, human, full-length cDNA in pCMV6-Entry (OriGene RC224483); Expressed alone or together with ABL-FLAG or FYN; also called ESDN; source: HEK 293, transfected, in lysate; immunoprecipitated (alpha-FLAG or alpha-MYC) for the zebrafish extract experiment and the far-Western; not shown: FLAG, C-terminal, kept; MYC, C-terminal, kept
T1 sequence (looked up): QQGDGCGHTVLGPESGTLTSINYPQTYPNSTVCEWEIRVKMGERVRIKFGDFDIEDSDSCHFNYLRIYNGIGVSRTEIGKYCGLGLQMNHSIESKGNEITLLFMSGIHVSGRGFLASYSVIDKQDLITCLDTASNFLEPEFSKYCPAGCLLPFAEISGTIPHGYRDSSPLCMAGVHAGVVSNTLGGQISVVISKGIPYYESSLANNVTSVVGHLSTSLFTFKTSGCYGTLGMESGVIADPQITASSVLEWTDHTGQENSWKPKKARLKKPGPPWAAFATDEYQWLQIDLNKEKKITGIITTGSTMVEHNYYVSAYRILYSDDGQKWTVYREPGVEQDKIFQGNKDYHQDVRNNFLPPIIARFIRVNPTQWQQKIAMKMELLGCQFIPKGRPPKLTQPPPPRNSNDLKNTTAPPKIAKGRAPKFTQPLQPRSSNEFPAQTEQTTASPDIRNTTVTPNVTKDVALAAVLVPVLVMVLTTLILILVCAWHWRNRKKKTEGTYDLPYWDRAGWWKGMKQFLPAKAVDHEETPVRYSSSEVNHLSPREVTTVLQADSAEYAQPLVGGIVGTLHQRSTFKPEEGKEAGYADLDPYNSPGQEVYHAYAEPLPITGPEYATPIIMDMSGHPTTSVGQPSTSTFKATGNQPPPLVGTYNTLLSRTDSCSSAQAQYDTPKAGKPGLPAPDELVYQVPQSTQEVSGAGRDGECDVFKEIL


Target: T1, DCBLD2-FLAG-MYC (full-length human …)
Experiment: pull-down; GST-14-3-3 fusions on GSH beads rocked at 4 C with lysates of 293 cells expressing DCBLD2-FLAG-MYC alone or with ABL-FLAG; washed 3x with BCLB; Western blotting (alpha-MYC for DCBLD2)
Details: one partner purified

| binding result | Binder |
| --- | --- |
| binds | GST-14-3-3ε (natural protein, UniProt P62258 1-255, looked up, 14-3-3ε, pGEX plasmid, gift of M. Yaffe; also called fusion of GSH S-transferase with 14-3-3ε; source: E. coli, purified on glutathione resin (kept on the beads for pull-down; eluted with GSH and dialyzed for far-Western)) MDDREDLVYQAKLAEQAERYDEMVESMKKVAGMDVELTVEERNLLSVAYKNVIGARRASWRIISSIEQKEENKGGEDKLKMIREYRQMVETELKLICCDILDVLDKHLIPAANTGESKVFYYKMKGDYHRYLAEFATGNDRKEAAENSLVAYKAASDIAMTELPPTHPIRLGLALNFSVFYYEILNSPDRACRLAKAAFDDAIAELDTLSEESYKDSTLIMQLLRDNLTLWTSDMQGDGEEQNKEALQDVEDENQ |
| binds | GST-14-3-3β (natural protein, UniProt P31946 1-246, looked up, 14-3-3β, pGEX plasmid, gift of M. Yaffe; also called fusion of GSH S-transferase with 14-3-3β; source: E. coli, purified on glutathione resin (kept on the beads for pull-down; eluted with GSH and dialyzed for far-Western)) MTMDKSELVQKAKLAEQAERYDDMAAAMKAVTEQGHELSNEERNLLSVAYKNVVGARRSSWRVISSIEQKTERNEKKQQMGKEYREKIEAELQDICNDVLELLDKYLIPNATQPESKVFYLKMKGDYFRYLSEVASGDNKQTTVSNSQQAYQEAFEISKKEMQPTHPIRLGLALNFSVFYYEILNSPEKACSLAKTAFDEAIAELDTLNEESYKDSTLIMQLLRDNLTLWTSENQGDEGDAGEGEN |

Second part, the binder before the results:

| Binder | binding result |
| --- | --- |
| GST-14-3-3ζ (natural protein, UniProt P63104 1-245, looked up, 14-3-3ζ, pGEX plasmid, gift of M. Yaffe; also called fusion of GSH S-transferase with 14-3-3ζ; source: E. coli, purified on glutathione resin (kept on the beads for pull-down; eluted with GSH and dialyzed for far-Western)) MDKNELVQKAKLAEQAERYDDMAACMKSVTEQGAELSNEERNLLSVAYKNVVGARRSSWRVVSSIEQKTEGAEKKQQMAREYREKIETELRDICNDVLSLLEKFLIPNASQAESKVFYLKMKGDYYRYLAEVAAGDDKKGIVDQSQQAYQEAFEISKKEMQPTHPIRLGLALNFSVFYYEILNSPEKACSLAKTAFDEAIAELDTLSEESYKDSTLIMQLLRDNLTLWTSDTQGDEAEAGEGGEN | binds |
| GST-14-3-3σ (natural protein, UniProt P31947 1-248, looked up, 14-3-3σ, pGEX plasmid, gift of M. Yaffe; also called fusion of GSH S-transferase with 14-3-3σ; source: E. coli, purified on glutathione resin (kept on the beads for pull-down; eluted with GSH and dialyzed for far-Western)) MERASLIQKAKLAEQAERYEDMAAFMKGAVEKGEELSCEERNLLSVAYKNVVGGQRAAWRVLSSIEQKSNEEGSEEKGPEVREYREKVETELQGVCDTVLGLLDSHLIKEAGDAESRVFYLKMKGDYYRYLAEVATGDDKKRIIDSARSAYQEAMDISKKEMPPTNPIRLGLALNFSVFHYEIANSPEEAISLAKTTFDEAMADLHTLSEDSYKDSTLIMQLLRDNLTLWTADNAGEEGGEAPQEPQS | binds |

From PMC8015000, “FYN and ABL Regulate the Interaction Networks of the DCBLD Receptor Family” (Molecular & Cellular Proteomics : MCP, 2020)
